In the supplement of paper PMC10567573:

B1: FBF1 (parent)
chain: QLQCSPAELQAELLHSQARLAELE
B2: ZNF75A (parent)
chain: RTHTGEQPYTCSICRRNFSRRSSL

Variants of: B1
Experiment: protein stability index of a GFP-peptide fusion (GPS, HEK-293T) (PSI 1-6); higher = more stable
Settings: c terminus: a fixed tail appended
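Further: lentivirally expressed fusions sorted by FACS into six bins by GFP to DsRed ratio, PSI derived from sequencing read proportions per bin multiplied by bin number.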

Variant | protein stability index
QLQCSPAELQAELLHGQARLAELE | 4.86
QLQCSPAELQAELLHHQARLAELE | 4.46
QLQCSPAELQAELLHIQARLAELE | 2.81
QLQCSPAELQAELLHKQARLAELE | 3.9
QLQCSPAELQAELLHLQARLAELE | 3.91
QLQCSPAELQAELLHMQARLAELE | 3.33
QLQCSPAELQAELLHNQARLAELE | 4.33
QLQCSPAELQAELLHPQARLAELE | 4.17
QLQCSPAELQAELLHQQARLAELE | 4.06
QLQCSPAELQAELLHRQARLAELE | 4.02
QLQCSPAELQAELLHTQARLAELE | 2.95
QLQCSPAELQAELLHVQARLAELE | 4.15
QLQCSPAELQAELLHWQARLAELE | 3.35
QLQCSPAELQAELLHYQARLAELE | 3.49
QLQCSPAELQAELLHSAARLAELE | 3.4
QLQCSPAELQAELLHSCARLAELE | 3.62
QLQCSPAELQAELLHSDARLAELE | 4.55
QLQCSPAELQAELLHSEARLAELE | 3.77
QLQCSPAELQAELLHSFARLAELE | 3.26
QLQCSPAELQAELLHSGARLAELE | 3.74
QLQCSPAELQAELLHSHARLAELE | 4.31
QLQCSPAELQAELLHSIARLAELE | 3.07
QLQCSPAELQAELLHSKARLAELE | 4.11
QLQCSPAELQAELLHSLARLAELE | 2.92

Variant | protein stability index
QLQCSPAELQAELLHSMARLAELE | 3.65
QLQCSPAELQAELLHSNARLAELE | 4.25
QLQCSPAELQAELLHSPARLAELE | 4.52
QLQCSPAELQAELLHSRARLAELE | 3.68
QLQCSPAELQAELLHSSARLAELE | 3.98
QLQCSPAELQAELLHSTARLAELE | 3.97
QLQCSPAELQAELLHSVARLAELE | 3.44
QLQCSPAELQAELLHSWARLAELE | 3.16
QLQCSPAELQAELLHSYARLAELE | 3.52
QLQCSPAELQAELLHSQCRLAELE | 3.27
QLQCSPAELQAELLHSQDRLAELE | 4.03
QLQCSPAELQAELLHSQERLAELE | 3.95
QLQCSPAELQAELLHSQFRLAELE | 2.82
QLQCSPAELQAELLHSQGRLAELE | 4.23
QLQCSPAELQAELLHSQHRLAELE | 2.85
QLQCSPAELQAELLHSQIRLAELE | 3.13
QLQCSPAELQAELLHSQKRLAELE | 2.77
QLQCSPAELQAELLHSQLRLAELE | 2.68
QLQCSPAELQAELLHSQMRLAELE | 2.77
QLQCSPAELQAELLHSQNRLAELE | 3.12
QLQCSPAELQAELLHSQPRLAELE | 3.96
QLQCSPAELQAELLHSQQRLAELE | 3.66
QLQCSPAELQAELLHSQRRLAELE | 3.24
QLQCSPAELQAELLHSQSRLAELE | 3.69

Variant | protein stability index
QLQCSPAELQAELLHSQTRLAELE | 3.42
QLQCSPAELQAELLHSQVRLAELE | 2.98
QLQCSPAELQAELLHSQWRLAELE | 2.18
QLQCSPAELQAELLHSQYRLAELE | 2.81
QLQCSPAELQAELLHSQAALAELE | 2.6
QLQCSPAELQAELLHSQACLAELE | 2.84
QLQCSPAELQAELLHSQADLAELE | 4.27
QLQCSPAELQAELLHSQAELAELE | 2.89
QLQCSPAELQAELLHSQAFLAELE | 2.12
QLQCSPAELQAELLHSQAGLAELE | 4.16
QLQCSPAELQAELLHSQAHLAELE | 3.34
QLQCSPAELQAELLHSQAILAELE | 1.99
QLQCSPAELQAELLHSQAKLAELE | 3.05
QLQCSPAELQAELLHSQALLAELE | 1.79
QLQCSPAELQAELLHSQAMLAELE | 1.97
QLQCSPAELQAELLHSQANLAELE | 4.2
QLQCSPAELQAELLHSQAPLAELE | 4.61
QLQCSPAELQAELLHSQAQLAELE | 2.94
QLQCSPAELQAELLHSQASLAELE | 4.45
QLQCSPAELQAELLHSQATLAELE | 3.88
QLQCSPAELQAELLHSQAVLAELE | 2.55
QLQCSPAELQAELLHSQAWLAELE | 2.12
QLQCSPAELQAELLHSQAYLAELE | 1.89
QLQCSPAELQAELLHSQARAAELE | 4.91

Variant | protein stability index
QLQCSPAELQAELLHSQARCAELE | 3.35
QLQCSPAELQAELLHSQARDAELE | 4.91
QLQCSPAELQAELLHSQAREAELE | 4.63
QLQCSPAELQAELLHSQARFAELE | 3.37
QLQCSPAELQAELLHSQARGAELE | 4.74
QLQCSPAELQAELLHSQARHAELE | 4.05
QLQCSPAELQAELLHSQARIAELE | 3.59
QLQCSPAELQAELLHSQARKAELE | 4.66
QLQCSPAELQAELLHSQARMAELE | 3.87
QLQCSPAELQAELLHSQARNAELE | 4.96
QLQCSPAELQAELLHSQARPAELE | 4.76
QLQCSPAELQAELLHSQARQAELE | 5.33
QLQCSPAELQAELLHSQARRAELE | 4.62
QLQCSPAELQAELLHSQARSAELE | 4.7
QLQCSPAELQAELLHSQARTAELE | 4.66
QLQCSPAELQAELLHSQARVAELE | 3.34
QLQCSPAELQAELLHSQARWAELE | 4.22
QLQCSPAELQAELLHSQARYAELE | 4.12
QLQCSPAELQAELLHSQARLCELE | 3.01
QLQCSPAELQAELLHSQARLDELE | 2.68
QLQCSPAELQAELLHSQARLEELE | 2.61
QLQCSPAELQAELLHSQARLFELE | 2.72
QLQCSPAELQAELLHSQARLGELE | 3.79
QLQCSPAELQAELLHSQARLHELE | 2.98

Variant | protein stability index
QLQCSPAELQAELLHSQARLIELE | 2.55
QLQCSPAELQAELLHSQARLKELE | 3.29
QLQCSPAELQAELLHSQARLLELE | 2.63
QLQCSPAELQAELLHSQARLMELE | 2.31
QLQCSPAELQAELLHSQARLNELE | 3.41
QLQCSPAELQAELLHSQARLPELE | 3.75
QLQCSPAELQAELLHSQARLQELE | 2.67
QLQCSPAELQAELLHSQARLRELE | 3.25
QLQCSPAELQAELLHSQARLSELE | 3.31
QLQCSPAELQAELLHSQARLTELE | 2.86
QLQCSPAELQAELLHSQARLVELE | 3.14
QLQCSPAELQAELLHSQARLWELE | 2.8
QLQCSPAELQAELLHSQARLYELE | 2.31
QLQCSPAELQAELLHSQARLAALE | 2.83
QLQCSPAELQAELLHSQARLACLE | 2.67
QLQCSPAELQAELLHSQARLADLE | 2.72
QLQCSPAELQAELLHSQARLAFLE | 2.25
QLQCSPAELQAELLHSQARLAGLE | 2.91
QLQCSPAELQAELLHSQARLAHLE | 2.39
QLQCSPAELQAELLHSQARLAILE | 2.16
QLQCSPAELQAELLHSQARLAKLE | 2.99
QLQCSPAELQAELLHSQARLALLE | 1.98
QLQCSPAELQAELLHSQARLAMLE | 3.12
QLQCSPAELQAELLHSQARLANLE | 3.21

Variant | protein stability index
QLQCSPAELQAELLHSQARLAPLE | 3.39
QLQCSPAELQAELLHSQARLAQLE | 2.53
QLQCSPAELQAELLHSQARLARLE | 2.92
QLQCSPAELQAELLHSQARLASLE | 2.48
QLQCSPAELQAELLHSQARLATLE | 2.34
QLQCSPAELQAELLHSQARLAVLE | 2.54
QLQCSPAELQAELLHSQARLAWLE | 2.76
QLQCSPAELQAELLHSQARLAYLE | 2.33
QLQCSPAELQAELLHSQARLAEAE | 4.59
QLQCSPAELQAELLHSQARLAECE | 3.66
QLQCSPAELQAELLHSQARLAEDE | 5.07
QLQCSPAELQAELLHSQARLAEEE | 4.48
QLQCSPAELQAELLHSQARLAEFE | 2.75
QLQCSPAELQAELLHSQARLAEGE | 4.71
QLQCSPAELQAELLHSQARLAEHE | 4
QLQCSPAELQAELLHSQARLAEIE | 2.59
QLQCSPAELQAELLHSQARLAEKE | 4.65
QLQCSPAELQAELLHSQARLAEME | 3.38
QLQCSPAELQAELLHSQARLAENE | 4.79
QLQCSPAELQAELLHSQARLAEPE | 4.03
QLQCSPAELQAELLHSQARLAEQE | 4.98
QLQCSPAELQAELLHSQARLAERE | 4.14
QLQCSPAELQAELLHSQARLAESE | 4.84
QLQCSPAELQAELLHSQARLAETE | 4.18

Variant | protein stability index
QLQCSPAELQAELLHSQARLAEVE | 3.03
QLQCSPAELQAELLHSQARLAEWE | 3.71
QLQCSPAELQAELLHSQARLAEYE | 3.26
QLQCSPAELQAELLHSQARLAELA | 3.75
QLQCSPAELQAELLHSQARLAELC | 3.22
QLQCSPAELQAELLHSQARLAELD | 2.45
QLQCSPAELQAELLHSQARLAELF | 2.32
QLQCSPAELQAELLHSQARLAELG | 3.23
QLQCSPAELQAELLHSQARLAELH | 3.56
QLQCSPAELQAELLHSQARLAELI | 3.06
QLQCSPAELQAELLHSQARLAELK | 3.44
QLQCSPAELQAELLHSQARLAELL | 2.41
QLQCSPAELQAELLHSQARLAELM | 2.83
QLQCSPAELQAELLHSQARLAELN | 3.29
QLQCSPAELQAELLHSQARLAELP | 3.18
QLQCSPAELQAELLHSQARLAELQ | 3.29
QLQCSPAELQAELLHSQARLAELR | 3.16
QLQCSPAELQAELLHSQARLAELS | 2.99
QLQCSPAELQAELLHSQARLAELT | 3.54
QLQCSPAELQAELLHSQARLAELV | 2.81
QLQCSPAELQAELLHSQARLAELW | 2.47
QLQCSPAELQAELLHSQARLAELY | 2.36

Variants of: B2
Experiment: as above
Settings: c terminus: a fixed tail appended

Variant | protein stability index
ATHTGEQPYTCSICRRNFSRRSSL | 3.23
CTHTGEQPYTCSICRRNFSRRSSL | 5.09
DTHTGEQPYTCSICRRNFSRRSSL | 3.34
ETHTGEQPYTCSICRRNFSRRSSL | 3.62
FTHTGEQPYTCSICRRNFSRRSSL | 2.12
GTHTGEQPYTCSICRRNFSRRSSL | 3.82
HTHTGEQPYTCSICRRNFSRRSSL | 3.93
ITHTGEQPYTCSICRRNFSRRSSL | 3.06
KTHTGEQPYTCSICRRNFSRRSSL | 2.99
LTHTGEQPYTCSICRRNFSRRSSL | 2.28
MTHTGEQPYTCSICRRNFSRRSSL | 2.33
NTHTGEQPYTCSICRRNFSRRSSL | 3.26
PTHTGEQPYTCSICRRNFSRRSSL | 3.15
QTHTGEQPYTCSICRRNFSRRSSL | 2.4
STHTGEQPYTCSICRRNFSRRSSL | 3.07
TTHTGEQPYTCSICRRNFSRRSSL | 3.14
VTHTGEQPYTCSICRRNFSRRSSL | 2.26
WTHTGEQPYTCSICRRNFSRRSSL | 2.67
YTHTGEQPYTCSICRRNFSRRSSL | 2.46
RAHTGEQPYTCSICRRNFSRRSSL | 3.58
RCHTGEQPYTCSICRRNFSRRSSL | 3.17
RDHTGEQPYTCSICRRNFSRRSSL | 3.02
